According to article PMC5181381:

Legend:
[1] = biological target: truncated form of turkey β1-adrenergic receptor, β1AR^∆NC (turkey) (UniProt P07700)
[2] = biological target: truncated form of turkey β1-adrenergic receptor, β1AR^∆NC (turkey) (UniProt P07700); experiment: SEC; purified β1AR^∆NC in LMNG mixed with a 1.2-fold molar excess of mini-Gs393, on ice 4 h; Superdex-200 10/300; 10 mM HEPES pH 7.5, 100 mM NaCl, 1 mM MgCl2, 1 μM ascorbic acid, 1 μM isoprenaline, 0.002% LMNG; peak fractions analysed by SDS-PAGE
[3] = biological target: non-lipidated Gβ1γ2 dimer (UniProt P62873); experiment: SEC; purified mini-Gs399 mixed with non-lipidated Gβ1γ2 dimer in an equimolar ratio, on ice 4 h; Superdex-200 10/300; 10 mM HEPES pH 7.5, 100 mM NaCl, 1 mM MgCl2, 1 μM GDP, 0.1 mM TCEP
[4] = biological target: truncated form of turkey β1-adrenergic receptor, β1AR^∆NC (turkey) (UniProt P07700); remark: listed apart in the source
[5] = biological target: minimally thermostabilised turkey β1AR construct β1AR-84 (turkey) (UniProt P07700)

Row | Apparent Tm of β1AR^∆NC in DDM, measured by ^3H-NE binding (°C) [1] | stoichiometry N [2] | stoichiometry N [3] | fold shift of the isoprenaline affinity of membrane-embedded β1AR^∆NC (competition with 3H-DHA, 25 μM binding partner, 20°C) [4] | fold increase of the isoprenaline affinity of membrane-embedded β1AR-84 (competition with 3H-DHA, 25 μM binding partner, 20°C) [5] | Substance
1 | 34.1 °C | 1 | – | – | – | Mini-Gs393 (final mini-Gs construct) (domain or fragment)
2 | – | – | 1 | – | – | mini-Gs399 (domain or fragment)
3 | 35.8 °C | – | – | 6 fold | 162 fold | soluble heterotrimeric Gs in the presence of the nanobody Nb35 (from UniProt P63092 1-394; P62873 1-340; P59768 1-71) (complex)
